Our source for the Kd, koff and kon values is patent US20230133381A1.

For this experiment, the target named is human DR5 (human). The experiment in a line: SPR (BIAcore X100), human DR5 on CM5 chip, IgG injected, 1:1 Langmuir model. Background: Surface plasmon resonance follows binding to a sensor surface in real time, without labels.

B1: DA35 (antibody, V domains shown)
VH: AVTLDESGGGLQTPGGGLSLVCKGSGFTFSSFNMLWVRQAPGKGLEWVAGIGKSDRYTGYGSAVKGRATISRDDGQSTARLQMNSLRAEDTAVYYCVKDAGSGCGSGGWTGACIDTWGHGTEVIVSS
VL: LTQPSSVSANLGGTVEITCSGGDSYAGSYYYGWYQQKAPGSAPVTVIYNNNNRPSNIPSRFSGSTSGSTATLTITGVQAEDEATYFCGSRDSSYVGIFGAGTTLTVL
B1: the dissociation constant (Kd) (commonly the free concentration of one partner at which half of the binding sites on the other are occupied at equilibrium, for simple one-to-one binding) was determined as 80.1 pM; the koff (in general, the first-order rate constant of dissociation) is 9.12e-05 s⁻¹; the kon (in general, the rate constant with which the complex forms) stood at 1.13e+06 M⁻¹ s⁻¹.

B2: DA24 (antibody, V domains shown)
VH: AVTLDESGGGLQTPGGGLSLVCKGSGFTFSSFNMLWVRQAPGKGLEWVAGIGKSDRYTGYGSAVKGRATISRDDGQSTVRLQLNNLRAEDTGTYYCVKDAGSGCGSGGWTGACIDTWGHGTEVIVSS
VL: LTQPSSVSANLGGTVEITCSGGDSYAGSYYYGWYQQKAPGSAPVTVIYNNNNRPSNIPSRFSGSTSGSTATLTITGVQAEDEATYYCGSRDSSYVGIFGAGTTLTVL
As to B2, the Kd was 1.02 pM, the koff turned out to be 1.23e-06 s⁻¹ and the kon came out at 1.2e+06 M⁻¹ s⁻¹.

B3: DA27 (antibody, V domains shown)
VH: AVTLDESGGGLQTPGGGLSLVCKGSGFTFSSFNMLWVRQAPGKGLEWVAGIGKSDRYTGYGSAVKGRATISRDDGQSTVRLQLNNLRAEDTGTYYCVKDAGSGCGSGGWTGACIDTWGHGTEVIVSS
VL: LTQPSSVSANLGGTVEITCSGGDSYAGSYYYGWYQQKAPGSAPVTVIYNNNNRPSNIPSRFSGSTSGSTATLTITGVQAEDEATYFCGSRDSSYVGIFGAGTTLTVL
B3: the Kd worked out at 1.92 pM, the koff came to 2.24e-06 s⁻¹ and the kon came to 1.17e+06 M⁻¹ s⁻¹.

B4: DA25 (antibody, V domains shown)
VH: AVTLDESGGGLQTPGGGLSLVCKGSGFTFSSFNMLWVRQAPGKGLEWVAGIGKSDRYTGYGSAVKGRATISRDDGQSTVYLQMNSLRAEDTGTYYCVKDAGSGCGSGGWTGACIDTWGHGTEVIVSS
VL: LTQPSSVSANLGGTVEITCSGGDSYAGSYYYGWYQQKAPGSAPVTVIYNNNNRPSNIPSRFSGSTSGSTATLTITGVQAEDEAVYFCGSRDSSYVGIFGAGTTLTVL
As for B4, the Kd came out at 1.62 pM, the koff amounted to 1.71e-06 s⁻¹ and the kon was 1.05e+06 M⁻¹ s⁻¹.

B5: DA32 (antibody, V domains shown)
VH: AVTLDESGGGLQTPGGGLSLVCKGSGFTFSSFNMLWVRQAPGKGLEWVAGIGKSDRYTGYGSAVKGRATISRDDGQSTVRLQLNNLRAEDTAVYYCVKDAGSGCGSGGWTGACIDTWGHGTEVIVSS
VL: LTQPSSVSANLGGTVEITCSGGDSYAGSYYYGWYQQKAPGSAPVTVIYNNNNRPSNIPSRFSGSTSGSTATLTITGVQAEDEAVYFCGSRDSSYVGIFGAGTTLTVL
For the molecule B5, the Kd was determined as 75.1 pM, the koff is 8.59e-05 s⁻¹ and the kon was 1.14e+06 M⁻¹ s⁻¹.

B6: DA3 (antibody, V domains shown)
VH: EVQLVESGGGLVQPGGSLRLSCAASGFTFSSFNMLWVRQAPGKGLEWVAGIGKSDRYTGYGSAVKGRFTISRDTSKSTVYLQMNSLRAEDTAVYYCVRDAGSGCGSGGWTGACIDTWGQGTLVTVSS
VL: DIQMTQSPSSLSASVGDRVTITCSGGDSYAGSYYYGWYQQKPGKAPKTLIYNNNNRPSGVPSRFSGSTSGTDFTLTISSLQPEDFATYYCGSRDSSYVGIFGQGTKVEIK
Take B6: the koff was under 1e-05 s⁻¹ and the kon was 4.9e+06 M⁻¹ s⁻¹.

B7: DA16 (antibody, V domains shown)
VH: EVQLVESGGGLVQPGGSLRLSCAASGFTFSSFNMLWVRQAPGKGLEWVAGIGKSDRYTGYGSAVKGRFTISRDTSKNTAYLQMNSLRAEDTAVYYCSRDAGSGCGSGGWTGACIDTWGQGTLVTVSS
VL: DIQMTQSPSSLSASVGDRVTITCSGGDSYAGSYYYGWYQQKPGKAPKTLIYNNNNRPSGVPSRFSGSRSGTDFTLTISSLQPEDFATYYCGSRDSSGAGGFGQGTKVEIK
B7 showed a Kd of 26.1 pM, a koff of 5.53e-05 s⁻¹ and an on-rate constant (kon) of 2.11e+06 M⁻¹ s⁻¹.

B8: DA4 (antibody, V domains shown)
VH: EVQLVESGGGLVQPGGSLRLSCAASGFTFSSFNMLWVRQAPGKGLEWVAGIGKSDRYTGYGSAVKGRFTISRDDSKNTVYLQMNSLRAEDTAVYYCVRDAGSGCGSGGWTGACIDTWGQGTLVTVSS
VL: DIQMTQSPSSLSASVGDRVTITCSGGDSYAGSYYYGWYQQKPGKAPKTLIYNNNNRPSGVPSRFSGSTSGTDFTLTISSLQPEDFATYYCGSRDSSYVGIFGQGTKVEIK
In turn, B8 returned a Kd of 0.1 pM, a koff of 1.2e-07 s⁻¹ and a kon of 1.2e+06 M⁻¹ s⁻¹.

B9: DA6 (antibody, V domains shown)
VH: EVQLVESGGGLVQPGGSLRLSCAASGFTFSSFNMLWVRQAPGKGLEWVAGIGKSDRYTGYGSAVKGRFTISRDDSKSTVYLQMNSLRAEDTAVYYCARDAGSGCGSGGWTGACIDTWGQGTLVTVSS
VL: DIQMTQSPSSLSASVGDRVTITCSGGDSYAGSYYYGWYQQKPGKAPKTLIYNNNNRPSGVPSRFSGSTSGTDFTLTISSLQPEDFATYYCGSRDSSYVGIFGQGTKVEIK
As for B9, the Kd stood at 0.53 pM, the koff worked out at 4.2e-06 s⁻¹ and the kon worked out at 7.8e+06 M⁻¹ s⁻¹.

B10: DA21 (antibody, V domains shown)
VH: EVQLVESGGGLVQPGGSLRLSCAASGFTFSSFNMLWVRQAPGKGLEWVAGIGKSDRYTGYGSAVKGRFTISRDDSKSTVYLQMNSLRAEDTAVYYCVRDAGSGCGSGGWTGACIDTWGQGTLVTVSS
VL: DIQMTQSPSSLSASVGDRVTITCSGGDSYAGSYYYGWYQQKPGKAPKTLIYNNNNRPSGVPSRFSGSRSGTDFTLTISSLQPEDFATYYCGSRDSSGAGGFGQGTKVEIK
As for B10, the Kd was 6.43 pM, the koff turned out to be 7.17e-06 s⁻¹ and the kon stood at 1.11e+06 M⁻¹ s⁻¹.

B11: DA10 (antibody, V domains shown)
VH: EVQLVESGGGLVQPGGSLRLSCAASGFTFSSFNMLWVRQAPGKGLEWVAGIGKSDRYTGYGSAVKGRFTISRDTSKNTAYLQMNSLRAEDTAVYYCSRDAGSGCGSGGWTGACIDTWGQGTLVTVSS
VL: DIQMTQSPSSLSASVGDRVTITCSGGDSYAGSYYYGWYQQKPGKAPKTLIYNNNNRPSGVPSRFSGSRSGTDFTLTISSLQPEDFATYYCGSRDSSYVGIFGQGTKVEIK
Turning to B11, the Kd stood at 7 pM, the koff was 1.6e-05 s⁻¹ and the kon worked out at 2.3e+06 M⁻¹ s⁻¹.

B12: DA7 (antibody, V domains shown)
VH: EVQLVESGGGLVQPGGSLRLSCAASGFTFSSFNMLWVRQAPGKGLEWVAGIGKSDRYTGYGSAVKGRFTISRDDSKSTVYLQMNSLRAEDTAVYYCSRDAGSGCGSGGWTGACIDTWGQGTLVTVSS
VL: DIQMTQSPSSLSASVGDRVTITCSGGDSYAGSYYYGWYQQKPGKAPKTLIYNNNNRPSGVPSRFSGSTSGTDFTLTISSLQPEDFATYYCGSRDSSYVGIFGQGTKVEIK
B12 displayed a dissociation constant (Kd) of 1.9 pM, a koff of 2.9e-06 s⁻¹ and an on-rate constant (kon) of 1.4e+06 M⁻¹ s⁻¹.

B13: DA2 (antibody, V domains shown)
VH: EVQLVESGGGLVQPGGSLRLSCAASGFTFSSFNMLWVRQAPGKGLEWVAGIGKSDRYTGYGSAVKGRFTISRDDSKSTVYLQMNSLRAEDTAVYYCVRDAGSGCGSGGWTGACIDTWGQGTLVTVSS
VL: DIQMTQSPSSLSASVGDRVTITCSGGDSYAGSYYYGWYQQKPGKAPKTLIYNNNNRPSGVPSRFSGSRSGTDFTLTISSLQPEDFATYYCGSRDSSYVGIFGQGTKVEIK
For B13, the Kd was under 5.3 pM and the kon worked out at 1.9e+06 M⁻¹ s⁻¹.

B14: DA13 (antibody, V domains shown)
VH: EVQLVESGGGLVQPGGSLRLSCAASGFTFSSFNMLWVRQAPGKGLEWVAGIGKSDRYTGYGSAVKGRFTISRDTSKNTAYLQMNSLRAEDTAVYYCSRDAGSGCGSGGWTGACIDTWGQGTLVTVSS
VL: DIQMTQSPSSLSASVGDRVTITCSGGDSYAGSYYYGWYQQKPGKAPKTLIYNNNNRPSGVPSRFSGSRSGTDFTLTISSLQPEDFATYYCGSRDSAGMGAFGQGTKVEIK
Consider B14, for which the Kd came out at 11.2 pM, the koff amounted to 2.94e-05 s⁻¹ and the kon worked out at 2.62e+06 M⁻¹ s⁻¹.

B15: DA20 (antibody, V domains shown)
VH: EVQLVESGGGLVQPGGSLRLSCAASGFTFSSFNMLWVRQAPGKGLEWVAGIGKSDRYTGYGSAVKGRFTISRDDSKSTVYLQMNSLRAEDTAVYYCVRDAGSGCGSGGWTGACIDTWGQGTLVTVSS
VL: DIQMTQSPSSLSASVGDRVTITCSGGDSYAGSYYYGWYQQKPGKAPKTLIYNNNNRPSGVPSRFSGSRSGTDFTLTISSLQPEDFATYYCGSRDSAGMGAFGQGTKVEIK
B15: the Kd is 12 pM, the koff came to 1.21e-05 s⁻¹ and the kon came to 1e+06 M⁻¹ s⁻¹.

B16: DA14 (antibody, V domains shown)
VH: EVQLVESGGGLVQPGGSLRLSCAASGFTFSSFNMLWVRQAPGKGLEWVAGIGKSDRYTGYGSAVKGRFTISRDTSKNTAYLQMNSLRAEDTAVYYCSRDAGSGCGSGGWTGACIDTWGQGTLVTVSS
VL: DIQMTQSPSSLSASVGDRVTITCSGGDSYAGSYYYGWYQQKPGKAPKTLIYNNNNKAKGVPSRFSGSRSGTDFTLTISSLQPEDFATYYCGSRDSSYVGIFGQGTKVEIK
Consider B16, for which the Kd was found to be 23.5 pM, the dissociation rate constant (koff) is 0.0001 s⁻¹ and the kon was 4.27e+06 M⁻¹ s⁻¹.

B17: DA1 (antibody, V domains shown)
VH: EVQLVESGGGLVQPGGSLRLSCAASGFTFSSFNMLWVRQAPGKGLEWVAGIGKSDRYTGYGSAVKGRFTISRDDSKSTVYLQMNSLRAEDTAVYYCVRDAGSGCGSGGWTGACIDTWGQGTLVTVSS
VL: DIQMTQSPSSLSASVGDRVTITCSGGDSYAGSYYYGWYQQKPGKAPKTLIYNNNNRPSGVPSRFSGSTSGTDFTLTISSLQPEDFATYYCGSRDSSYVGIFGQGTKVEIK
Molecule B17 had a Kd of under 2 pM, a koff of under 1e-05 s⁻¹ and a kon of 4.9e+06 M⁻¹ s⁻¹.

B18: DA12 (antibody, V domains shown)
VH: EVQLVESGGGLVQPGGSLRLSCAASGFTFSSFNMLWVRQAPGKGLEWVAGIGKSDRYTGYGSAVKGRFTISRDTSKNTAYLQMNSLRAEDTAVYYCSRDAGSGCGSGGWTGACIDTWGQGTLVTVSS
VL: DIQMTQSPSSLSASVGDRVTITCSGGDSYAGSYYYGWYQQKPGKAPKTLIYNNNNLMPGVPSRFSGSRSGTDFTLTISSLQPEDFATYYCGSRDSSYVGIFGQGTKVEIK
In turn, B18 showed a Kd of 12.7 pM, a koff of 2.99e-05 s⁻¹ and a kon of 2.37e+06 M⁻¹ s⁻¹.
